Data as given in publication PMC3252480 (Nature structural & molecular biology, 2011).
One block for each molecule: values may come before it.

B2: Vps21-His10 (natural protein, S. cerevisiae, UniProt P36017 1-210, looked up)
chain: MNTSVTSIKLVLLGEAAVGKSSIVLRFVSNDFAENKEPTIGAAFLTQRVTINEHTVKFEIWDTAGQERFASLAPMYYRNAQAALVVYDVTKPQSFIKARHWVKELHEQASKDIIIALVGNKIDMLQEGGERKVAREEGEKLAEEKGLLFFETSAKTGENVNDVFLGIGEKIPLKTAEEQNSASNERESNNQRVDLNAANDGTSANSACSC

Columns and labels:
[1] = target: Vps21-His10 (S. cerevisiae) (UniProt P36017); assay: liposome tethering by quasielastic light scattering
[2] = target: B2; assay: bead-liposome tethering assay
[3] = target: T1, GST-Ypt53 (S. cerevisiae, UniProt P36019 1-220); assay: bead-liposome tethering assay
T1 sequence (looked up): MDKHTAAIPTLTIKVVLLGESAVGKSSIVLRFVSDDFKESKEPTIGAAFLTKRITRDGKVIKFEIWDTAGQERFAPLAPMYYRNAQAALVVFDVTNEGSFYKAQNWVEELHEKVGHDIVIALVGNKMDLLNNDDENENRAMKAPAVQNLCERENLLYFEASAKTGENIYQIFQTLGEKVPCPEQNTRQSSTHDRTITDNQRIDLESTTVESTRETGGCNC

critical surface density for tethering [1]: < 1300 μm^−2
Molecule: Vps21-His10 (from UniProt P36017 1-210) (natural protein)

binding result [2]: binds
B1: GST-Ypt10 (natural protein, S. cerevisiae, UniProt P38146 1-199, looked up)
chain: MEATIKVVLLGDSSVGKTSIVTRLKSGKFLAKHAATIGAAFITKTIEVPSNDSSTEKRIHMEIWDTAGQERYKSLVPMYYRDANIALIVFELGDVSSLQCAKTWFQDLQDRAQGTQVIIVGNKYDLVCEEHSGEVTIPAELQGLPYVAVSAKTGYNFDTLNKIIISLVPESQFKTLSKNNEQGNILEINKKKSGSGCIC

Molecule: B2
binding result [3]: binds
